Reference: patent US7063946B2, “Methods, reagents, kits and apparatus for protein function analysis” (Meso Scale Technologies, LLC., priority 2001, dated 2006)
Substitutions are numbered along the chain they refer to. Numbers in names are those of the source.

B1: RGS4: Regulator of G-protein signaling 4, in vitro translated from plasmid pcDNA3-RGS4 (protein, UniProt P49798 1-205, looked up)
Regulator of G-protein …: MCKGLAGLPASCLRSAKDMKHRLGFLLQKSDSCEHNSSHNKKDKVVICQRVSQEEVKKWAESLENLISHECGLAAFKAFLKSEYSEENIDFWISCEEYKKIKSPSKLSPKAKKIYNEFISVQATKEVNLDSCTREETSRNMLEPTITCFDEAQKKIFNLMEKDSYRRFLKSRFYLDLVNPSSCGAEKQKGAKSSADCASLVPQCA
B2: RGS4-C2V: RGS4C2V mutant, in vitro translated from pcDNA3-RGS4-C2V (protein, UniProt P49798 1-205, looked up, variant C2V)
Regulator of G-protein …: B1 Regulator of G-protein … with C2V
B3: 3912628: IMAGE clone protein: RGS4 (protein, UniProt P49798 1-205, looked up)
Regulator of G-protein …: B1 Regulator of G-protein …
B4: 3920860: IMAGE clone protein: RGS4 (protein, UniProt P49798 1-205, looked up)
Regulator of G-protein …: B1 Regulator of G-protein …
B5: 3914731: IMAGE clone protein: RGS4 (protein, UniProt P49798 1-205, looked up)
Regulator of G-protein …: B1 Regulator of G-protein …

How the values were obtained:
Type in all cases: biochemical, rabbit
[1] = test system: N-end rule pathway ubiquitylation in reticulocyte lysate; assay: ECL ubiquitylation assay using Sulfo-TAG-labeled streptavidin and IPR plate coated with FK2 antibody; details: for IPR readings, Experiment 1 / IPR readings, Experiment 2: no dipeptide inhibitor
Protocol: (§1) Binding Buffer 2 (BB2) refers to 25 mM Tris-HCl buffer pH 7.4 containing 100 mM NaCl, 0.05 mM Na3VO4, 0.004% TritonX-100, 2 mM DTT and protease inhibitors (protease inhibitor cocktail, EDTA free, Roche Applied Science). Proteins were produced by coupled transcription/translation using TnT reaction mixes (Promega Corp, WI). The TNT Quick coupled transcription-translation system (Promega) contains rabbit reticulocyte lysate pre-mixed with most of the reaction components necessary to carry out transcription and translation in vitro (TNT mix), including all the amino acids except methionine. Unless otherwise noted, biotin-labeled in vitro translated proteins were produced in reaction mixtures that contained 8–30 μg/ml of a selected plasmid encoding protein of interest, 5 μl of TNT T7 Quick reticulocyte lysate mix (Promega Corp, WI) or TnT SP6 Quick Coupled Transcription/Translation System (Promega Corp, WI), 20 μM methionine, 50 μM MG-132 (Calbiochem, proteasome inhibitor to inhibit degradation of ubiquitylated proteins by proteasome) and 20 μg/ml biotinylated Lys-tRNA (transcend tRNA, Promega). The reactions were allowed to proceed for 20–90 min at 30° C. The reactions were stopped by the addition of BB1 supplemented with 20 mM AMP-PNP (Sigma, a non-hydrolyzable ATP analog), 20 mM N-ethylmaleimide (Sigma, an irreversible inhibitor of deubiquitylating enzymes) or, alternatively, by the addition of BB2. BB1 was used in screens involving the ubiquitination pathway. BB2 was used for other assay formats. The produced proteins were used in the assays of interest with or without further purification.
Transcription-translation reaction mixtures were prepared as described in the Example 1 except that no labeled ubiquitin was added. Some reactions also contained 1 mM dipeptide inhibitor of the N-end rule pathway (either Arg-β-Ala, or Trp-Ala) together with 50 μM bestatin as indicated (Table 2). The reaction was allowed to proceed for 20 min at 30° C. Then 1 μl of the reaction was mixed with 50 μl of BB1 supplemented with 20 mM AMP-PNP, 20 mM N-ethylmaleimide, and 2 μg/ml Sulfo-TAG-labeled streptavidin in a well of an IPR plate coated with an anti-ubiquitin antibody (FK2 antibody, Affiniti). […] In a typical assay the presence of RGS4-encoding plasmid produced a 30–100 fold higher ECL signal compared to the empty vector (FIG. 2, Table 2). This signal was reduced 3–4 fold in the presence of Arg-β-Ala (a type 1 inhibitor of the N-end rule pathway), but not in the presence of Trp-Ala (a type 2 inhibitor of the N-end rule pathway) in agreement with the previous report that RGS4 is a type 1 N-end rule substrate in reticulocyte lysates (Davydov and Varshavsky, 2000, J. Biol. Chem., 275:22931–22941). In the same assay RGS4 produced 3–5 fold higher ECL signal compared to RGS4C2V, when the same amounts of the corresponding plasmids were added to the reaction mixtures (Table 2).

[2] = test system: ubiquitylation in reticulocyte lysate; assay: ECL ubiquitylation assay using Sulfo-TAG-labeled FK2 antibody and streptavidin-coated IPR plate
Protocol: The protein was prepared as described Example 2 and mixed with 60 μg/ml Sulfo-TAG-labeled FK2 antibody (Affiniti) having 5.6 labels per antibody, in a streptavidin-coated NPT IPR plate.

[3] = test system: ubiquitin-proteasome system (N-end rule pathway) in reticulocyte lysate; assay: ECL assay for ubiquitylation in reticulocyte lysate using Sulfo-TAG-labeled Ub, streptavidin-coated IPR plate; details: for IPR readings, Experiment 1 / IPR readings, Experiment 2: Sulfo-TAG-labeled Ub, reticulocyte lysate +
Protocol: as §1
RGS4 was produced by transcription/translation of 30 μg/ml plasmid pcDNA3-RGS4 (Davydov and Varshavsky, 2000, J. Biol. Chem., 275:22931–22941) under the conditions described in Materials and Methods except for the addition of 1 μM Ub aldehyde (Calbiochem, to inhibit deubiquitylating enzymes) and 5 μM Sulfo-Tag-labeled Ub (having an average of 4.1 labels per Ub molecule). Then 3 μl of the reaction was mixed with 50 μl of BB1 in a 96-well streptavidin-coated non-plasma treated IPR (NPT IPR) plate.

[4] = test system: ubiquitylation in reticulocyte lysate; assay: Ubiquitylation assay using Sulfo-TAG labeled FK2 antibody, streptavidin magnetic beads, M-8 Analyzer
Protocol: Transcription-translation reaction mixtures containing pcDNA3-RGS4 or pcDNA3-RGS4-C2V plazmids(Davydov and Varshavsky, 2000, J. Biol. Chem., 275:22931–22941) were prepared and used as described in the Example 2. The reaction products were mixed with 3 μg Sulfo-TAG labeled FK2 antibody in a 96-well plate in a binding buffer. Sulfo-TAG labeled FK2 antibody had 5.6 Sulfo-TAG labels per antibody molecule. […] Then 30 μl of BB1 supplemented with 20 mM AMP-PNP, 20 mM N-ethylmaleimide and containing 20 μg dynal beads streptavidin (Dynal) were added to each well, and the plate was left on the shaker at room temperature for another hour to allow for binding of biotinylated proteins to dynal beads. Thereafter the volume in each well was adjusted to 200 μl with BB1, and ECL signals were measured in M-8 Analyzer (IGEN International, Inc., Gaithersburg Md.).

[5] = test system: ubiquitylation in reticulocyte lysate; assay: Ubiquitylation assay using Sulfo-TAG labeled Ub, streptavidin magnetic beads, M-8 Analyzer
Protocol: Then 10 μl of the reaction product was mixed with 50 μl of BB1 supplemented with 20 mM AMP-PNP, 20 mM N-ethylmaleimide, and 20 μg streptavidin coated magnetic beads (Streptavidin Dyna-Beads, Dynal) in a 96-well plate. […] Thereafter the volume in each well was adjusted to 200 μl with binding buffer, and ECL signals were measured in M-8 Analyzer (IGEN International, Inc., Gaithersburg, Md.).

[6] = test system: ubiquitylation in reticulocyte lysates; assay: 96-well screen of EST clones: ubiquitylation assay, FK2 antibody coated plate
Protocol: Transcription-translation reactions were assembled in a 96-well plate as described in Materials and Method in a total volume of 19 μl. The amounts of DNA in each reaction varied depending on DNA yields at purification stage, while the four positive control wells contained reactions with 20 μg/ml plasmid DNA. The reactions were incubated at 30° C. for 40 min.
After incubation, 1 μl of the TNT reaction was mixed with 50 μl of BB1 in an IPR plate coated with FK2 antibody (750 ng antibody per well) (see Materials and Methods).

[7] = test system: N-end rule pathway ubiquitylation in reticulocyte lysates; assay: ECL ubiquitylation assay of EST clone proteins, FK2 antibody coated IPR plate
Protocol: The following EST clones in bacteria were obtained: IMAGE ID #, 3446518, 3446518, 3446518, 3914731 (RGS4), 3914731 (RGS4), 3914731 (RGS4) (Incyte, Palo Alto). Bacteria containing EST clones were grown in 2 ml LB with 50 μg/ml Amp, and DNA was isolated using QIAprep Spin Miniprep Kit (Qiagen). DNA yield was 5–20 μg.
Proteins were prepared from the EST clones in transcription-translation reaction mixtures (total volume 12.5 uL) as described in the Materials and Methods except for the addition of 1 μM Ub aldehyde (Calbiochem). Then 1 μl of the reaction product was mixed with 50 μl of BB1 supplemented with 20 mM AMP-PNP, 20 mM N-ethylmaleimide and 2 μg/ml Sulfo-TAG-labeled streptavidin in to each well of an IPR plate coated with FK2 antibody.
As previously reported, RGS4 is a substrate of the N-end rule-dependent ubiquitylation in reticulocyte lysates (Davydov and Varshavsky, 2000, J. Biol. Chem., 275:22931–22941). To determine if the protein produced from clone 3446518 was similarly ubiquitylated through the N-end rule pathway, the ECL ubiquitylation assay was performed in the presence of dipeptide inhibitors Arg-β-Ala (type 1 inhibitor of the N-end rule pathway), or Trp-Ala (type 2 inhibitor of the same pathway). As was shown on FIG. 2, the RGS4 signal was reduced 3–4 fold in the presence of Arg-β-Ala (a type 1 inhibitor of the N-end rule pathway), but not in the presence of Trp-Ala (a type 2 inhibitor of the N-end rule pathway) in agreement with the previous report that RGS4 is a type 1 N-end rule substrate in reticulocyte lysates (Davydov and Varshavsky, 2000, J. Biol. Chem., 275:22931–22941). In contrast, the dipeptides had little effect on the assay signal from clone 3446518 (FIG. 2). Thus, a different pathway of the ubiquitin system mediates ubiquitylation of the protein produced from clone 3446518.

Molecule	IPR readings, Experiment 1 [1]	IPR readings, Experiment 2 [1]	IPR readings, Experiment 1 [3]	IPR readings, Experiment 2 [3]	M-8 readings [4]	M-8 readings, Experiment 1 [5]	M-8 readings, Experiment 2 [5]	signal in ubiquylation screen (FIG. 2, in words) [6]	signal in ubiquitylation assay (in words) [7]	also measured
B1	23441	23137	29294	27303	187328	87339	71463			fold higher ECL signal compared to RGS4C2V ([1]; same amounts of plasmids): 3–5 fold; fold higher ECL signal compared to the empty vector ([1]; typical assay): 30–100 fold; IPR readings ([2]; reticulocyte lysate +): 85993; fold higher ECL signal compared to the empty vector ([2]; typical assay): 15–30 fold; fold higher ECL signal compared to RGS4C2V ([3]; same amounts of plasmids): 3–4 fold; fold higher ECL signal compared to the empty vector ([3]; typical experiment): 5–15 fold
B2	5567	5362	7744	7614	14689	30201	26712			
B3								strong specific signal	strong specific signal	
B4								strong specific signal	strong specific signal	
B5								strong specific signal	strong specific signal	ECL readings, Experiment 1 ([7]; no dipeptide inhibitor): 41670; ECL readings, Experiment 2 ([7]; no dipeptide inhibitor): 43729; ECL readings, Experiment 3 ([7]; no dipeptide inhibitor): 41806
